From US20250257142A1 (INVETX, published 2025)

Tests used:
[1] = biological target: T1, extracellular domain of canine IL-31RA fused to murine IgG2A Fc (canine); assay: SPR Biacore T200, antibody captured on anti-dog H+L chip, canine IL-31RA-mFc as analyte; relative affinity scale: *** 3 pM-100 pM, ** 101 pM-1 nM, * 1.1 nM-20 nM (avidity)
T1 construct: also called Canine IL-31RA-murine IgG2A Fc; Canine IL-31RA-mFc
T1 chain: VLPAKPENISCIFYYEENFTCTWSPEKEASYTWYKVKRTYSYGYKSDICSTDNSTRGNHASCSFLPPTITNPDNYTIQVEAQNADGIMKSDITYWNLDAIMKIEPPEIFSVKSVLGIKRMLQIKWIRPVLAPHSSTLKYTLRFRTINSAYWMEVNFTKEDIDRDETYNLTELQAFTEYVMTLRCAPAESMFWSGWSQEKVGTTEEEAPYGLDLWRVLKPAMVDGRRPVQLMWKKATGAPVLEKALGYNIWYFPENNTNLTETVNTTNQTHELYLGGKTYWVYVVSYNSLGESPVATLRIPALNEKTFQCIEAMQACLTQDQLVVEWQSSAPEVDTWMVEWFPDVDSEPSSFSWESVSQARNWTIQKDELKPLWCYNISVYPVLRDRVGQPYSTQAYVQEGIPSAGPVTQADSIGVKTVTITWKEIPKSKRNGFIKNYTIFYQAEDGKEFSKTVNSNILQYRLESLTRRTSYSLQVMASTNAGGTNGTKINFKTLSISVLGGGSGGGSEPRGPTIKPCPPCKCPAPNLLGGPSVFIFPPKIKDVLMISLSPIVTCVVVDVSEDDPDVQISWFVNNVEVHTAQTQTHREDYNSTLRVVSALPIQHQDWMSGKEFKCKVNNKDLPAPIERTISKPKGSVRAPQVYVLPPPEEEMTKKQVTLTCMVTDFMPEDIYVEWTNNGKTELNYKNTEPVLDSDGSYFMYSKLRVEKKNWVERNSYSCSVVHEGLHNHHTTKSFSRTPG
Procedure: (§1) The different heavy and light chain combinations were co-transfected into ExpiCHO cells using the ExpiCHO transfection kit (ThermoFisher; Cat. #A29133). Seven days following the transient transfection, the IgG in the conditioned medium was purified using MabSelect SuRe chromatography. The antibodies were buffer-exchanged into PBS, pH 7.4. The relative affinity of the variants was determined by SPR on a Biacore T200. The antibody was captured using a CM5 Series S chip amine coupled with an anti-dog H+L antibody (Jackson Immunoresearch). Canine IL-31RA-mFc (100 nM, 50 nM, 25 nM, 12.5 nM, 6.25 nM, 3.625 nM) solutions in 1×HBS-EP+ was flown over the sensor chip for a contact time of 120 s and a dissociation time of 600 s at a flow rate of […]. Double reference-subtracted sensorgrams were fitted to a 1:1 binding model using Biacore T200 Evaluation software. The canine IL-31RA antigen was both a dimer and aggregated so there were avidity effects with the measured affinities. […] Following the initial results with the single variants, a heavy chain containing the W53F variant and the M118I variant was synthesized and subcloned into pcDNA 3.4 (SEQ ID NO:18). The same methods as described above for expression and purification of the variant along with measuring the relative affinity were used to determine the relative affinity of the W53F/M118I heavy chain variant combined with the S95A light chain and the N94Q light chain variants.

[2] = biological target: T1, extracellular domain of canine IL-31RA …; assay: as above
Procedure: as §1, with “Seven” for “The different heavy and light chain combinations were co-transfected into ExpiCHO cells using the ExpiCHO transfection kit (ThermoFisher; Cat. #A29133). Seven”

Row | Binder | relative affinity (apparent KD by SPR) [1] [nM] | binding result [2]
1 | 109-49 heavy chain M118I variant with wild-type light chain (antibody, V domains shown, Canine IgGB/kappa; signal peptides left out; also called M118I / Wild-type) VH: EVQLVESGGDLVKPGGSLRLSCVASGFTFDDYGMSWVRQAPGKGLQWVSGINWAGGTIGYADAVKGRFTISRDNARNTVYLQMNSLRAEDTAVYYCARESPLRLGDLGGDYFYYYYYIDVWGQGTLVTVSS VL: EVVMIQTPLSLSVSPGEPASISCRASQSVSSRYLVWYLQKPGQSPQLLIYGTSSRATGVSDRFSGSGSGTDFTLRISRVEAEDVGVYYCQQYDNSPRTFGQGTKVEIKR | 0.003 to 0.1 | –
2 | 109-49 wild-type heavy chain with light chain N94Q variant (antibody, V domains shown, Canine IgGB/kappa; signal peptides left out; also called Wild-type / N94Q) VH: EVQLVESGGDLVKPGGSLRLSCVASGFTFDDYGMSWVRQAPGKGLQWVSGINWAGGTIGYADAVKGRFTISRDNARNTVYLQMNSLRAEDTAVYYCARESPLRLGDLGGDYFYYYYYMDVWGQGTLVTVSS VL: EVVMIQTPLSLSVSPGEPASISCRASQSVSSRYLVWYLQKPGQSPQLLIYGTSSRATGVSDRFSGSGSGTDFTLRISRVEAEDVGVYYCQQYDQSPRTFGQGTKVEIKR | 0.101 to 1 | –
3 | caninized antibody clone 109-49 (antibody, V domains shown, Canine IgGB and canine kappa constant domains) VH: EVQLVESGGDLVKPGGSLRLSCVASGFTFDDYGMSWVRQAPGKGLQWVSGINWAGGTIGYADAVKGRFTISRDNARNTVYLQMNSLRAEDTAVYYCARESPLRLGDLGGDYFYYYYYMDVWGQGTLVTVSS VL: EVVMIQTPLSLSVSPGEPASISCRASQSVSSRYLVWYLQKPGQSPQLLIYGTSSRATGVSDRFSGSGSGTDFTLRISRVEAEDVGVYYCQQYDNSPRTFGQGTKVEIKR | 0.003 to 0.1 | –
4 | 109-49 heavy chain W53F + M118I variant with light chain N94Q variant (antibody, V domains shown, Canine IgGB/kappa; signal peptides left out; also called W53F-M118I / N94Q) VH: EVQLVESGGDLVKPGGSLRLSCVASGFTFDDYGMSWVRQAPGKGLQWVSGINFAGGTIGYADAVKGRFTISRDNARNTVYLQMNSLRAEDTAVYYCARESPLRLGDLGGDYFYYYYYIDVWGQGTLVTVSS VL: EVVMIQTPLSLSVSPGEPASISCRASQSVSSRYLVWYLQKPGQSPQLLIYGTSSRATGVSDRFSGSGSGTDFTLRISRVEAEDVGVYYCQQYDQSPRTFGQGTKVEIKR | 1.1 to 20 | –
5 | 109-49 heavy chain M118L variant with wild-type light chain (antibody, V domains shown, Canine IgGB/kappa; signal peptides left out; also called M118L / Wild-type) VH: EVQLVESGGDLVKPGGSLRLSCVASGFTFDDYGMSWVRQAPGKGLQWVSGINWAGGTIGYADAVKGRFTISRDNARNTVYLQMNSLRAEDTAVYYCARESPLRLGDLGGDYFYYYYYLDVWGQGTLVTVSS VL: EVVMIQTPLSLSVSPGEPASISCRASQSVSSRYLVWYLQKPGQSPQLLIYGTSSRATGVSDRFSGSGSGTDFTLRISRVEAEDVGVYYCQQYDNSPRTFGQGTKVEIKR | 1.1 to 20 | –
6 | 109-49 heavy chain W53F + M118I variant with light chain S95A variant (antibody, V domains shown, Canine IgGB/kappa; signal peptides left out; also called W53F-M118I / S95A) VH: EVQLVESGGDLVKPGGSLRLSCVASGFTFDDYGMSWVRQAPGKGLQWVSGINFAGGTIGYADAVKGRFTISRDNARNTVYLQMNSLRAEDTAVYYCARESPLRLGDLGGDYFYYYYYIDVWGQGTLVTVSS VL: EVVMIQTPLSLSVSPGEPASISCRASQSVSSRYLVWYLQKPGQSPQLLIYGTSSRATGVSDRFSGSGSGTDFTLRISRVEAEDVGVYYCQQYDNAPRTFGQGTKVEIKR | 1.1 to 20 | –
7 | 109-49 wild-type heavy chain with light chain S95A variant (antibody, V domains shown, Canine IgGB/kappa; signal peptides left out; also called Wild-type / S95A) VH: EVQLVESGGDLVKPGGSLRLSCVASGFTFDDYGMSWVRQAPGKGLQWVSGINWAGGTIGYADAVKGRFTISRDNARNTVYLQMNSLRAEDTAVYYCARESPLRLGDLGGDYFYYYYYMDVWGQGTLVTVSS VL: EVVMIQTPLSLSVSPGEPASISCRASQSVSSRYLVWYLQKPGQSPQLLIYGTSSRATGVSDRFSGSGSGTDFTLRISRVEAEDVGVYYCQQYDNAPRTFGQGTKVEIKR | 0.003 to 0.1 | –
8 | 109-49 heavy chain W53Y variant with wild-type light chain (antibody, V domains shown, Canine IgGB/kappa; signal peptides left out; also called W53Y / Wild-type) VH: EVQLVESGGDLVKPGGSLRLSCVASGFTFDDYGMSWVRQAPGKGLQWVSGINYAGGTIGYADAVKGRFTISRDNARNTVYLQMNSLRAEDTAVYYCARESPLRLGDLGGDYFYYYYYMDVWGQGTLVTVSS VL: EVVMIQTPLSLSVSPGEPASISCRASQSVSSRYLVWYLQKPGQSPQLLIYGTSSRATGVSDRFSGSGSGTDFTLRISRVEAEDVGVYYCQQYDNSPRTFGQGTKVEIKR | 1.1 to 20 | –
9 | 109-49 heavy chain M118I variant with light chain N94Q variant (antibody, V domains shown, Canine IgGB/kappa; signal peptides left out; also called M118I / N94Q) VH: EVQLVESGGDLVKPGGSLRLSCVASGFTFDDYGMSWVRQAPGKGLQWVSGINWAGGTIGYADAVKGRFTISRDNARNTVYLQMNSLRAEDTAVYYCARESPLRLGDLGGDYFYYYYYIDVWGQGTLVTVSS VL: EVVMIQTPLSLSVSPGEPASISCRASQSVSSRYLVWYLQKPGQSPQLLIYGTSSRATGVSDRFSGSGSGTDFTLRISRVEAEDVGVYYCQQYDQSPRTFGQGTKVEIKR | 0.003 to 0.1 | –
10 | 109-49 heavy chain W53F variant with wild-type light chain (antibody, V domains shown, Canine IgGB/kappa; signal peptides left out; also called W53F / Wild-type) VH: EVQLVESGGDLVKPGGSLRLSCVASGFTFDDYGMSWVRQAPGKGLQWVSGINFAGGTIGYADAVKGRFTISRDNARNTVYLQMNSLRAEDTAVYYCARESPLRLGDLGGDYFYYYYYMDVWGQGTLVTVSS VL: EVVMIQTPLSLSVSPGEPASISCRASQSVSSRYLVWYLQKPGQSPQLLIYGTSSRATGVSDRFSGSGSGTDFTLRISRVEAEDVGVYYCQQYDNSPRTFGQGTKVEIKR | 1.1 to 20 | –
11 | 186-95 heavy chain M106L variant with wild-type light chain (antibody, V domains shown, Canine IgGB/kappa; signal peptides left out; also called M106L / Wild-type) VH: EVQLVESGGDLVKPGGSLRLSCVASGFTFSSYAMSWVRQAPGKGLQWVSAISGSGNSTYYADAVKGRFTISRDNAKNTLYLQMNSLRAEDTAVYYCATQVVYYFKLDVWGQGTLVTVSS VL: EIVMTQSPGSLAGSAGESVSINCKSSQSVSSNLAWYQQKPGERPKLLIYGASTRASGVPARFSSSGSGTDFTLTINNLQAEDVGDYYCQQYYNWPPFTFGQGTKLEIKR | – | binds
12 | 186-95 heavy chain N56Q variant with wild-type light chain (antibody, V domains shown, Canine IgGB/kappa; signal peptides left out; also called N56Q / Wild-type) VH: EVQLVESGGDLVKPGGSLRLSCVASGFTFSSYAMSWVRQAPGKGLQWVSAISGSGQSTYYADAVKGRFTISRDNAKNTLYLQMNSLRAEDTAVYYCATQVVYYFKMDVWGQGTLVTVSS VL: EIVMTQSPGSLAGSAGESVSINCKSSQSVSSNLAWYQQKPGERPKLLIYGASTRASGVPARFSSSGSGTDFTLTINNLQAEDVGDYYCQQYYNWPPFTFGQGTKLEIKR | – | binds
13 | 186-95 heavy chain M106I variant with wild-type light chain (antibody, V domains shown, Canine IgGB/kappa; signal peptides left out; also called M106I / Wild-type) VH: EVQLVESGGDLVKPGGSLRLSCVASGFTFSSYAMSWVRQAPGKGLQWVSAISGSGNSTYYADAVKGRFTISRDNAKNTLYLQMNSLRAEDTAVYYCATQVVYYFKIDVWGQGTLVTVSS VL: EIVMTQSPGSLAGSAGESVSINCKSSQSVSSNLAWYQQKPGERPKLLIYGASTRASGVPARFSSSGSGTDFTLTINNLQAEDVGDYYCQQYYNWPPFTFGQGTKLEIKR | – | binds
14 | 186-95 heavy chain N56Q + M106L variant with light chain W94Y variant (antibody, V domains shown, Canine IgGB/kappa; signal peptides left out; also called N56Q-M106L / W94Y) VH: EVQLVESGGDLVKPGGSLRLSCVASGFTFSSYAMSWVRQAPGKGLQWVSAISGSGQSTYYADAVKGRFTISRDNAKNTLYLQMNSLRAEDTAVYYCATQVVYYFKLDVWGQGTLVTVSS VL: EIVMTQSPGSLAGSAGESVSINCKSSQSVSSNLAWYQQKPGERPKLLIYGASTRASGVPARFSSSGSGTDFTLTINNLQAEDVGDYYCQQYYNYPPFTFGQGTKLEIKR | – | binds
